Laboratory results taken from patent EP4644419A1 (Hangzhou Zhongmeihuadong Pharmaceutical Co., Ltd., dated 2025).

T1: human CD112R antigen protein huCD112R-His (Acro Biosysterm, PVG-H52H4) (human, UniProt Q6DKI7 41-171)
T1 construct: purchased; also called human antigen protein; not shown: His tag
T1 sequence (looked up): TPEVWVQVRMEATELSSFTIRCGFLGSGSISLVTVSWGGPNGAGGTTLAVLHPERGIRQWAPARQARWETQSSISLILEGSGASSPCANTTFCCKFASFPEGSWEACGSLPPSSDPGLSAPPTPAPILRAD

T2: human CD112R on antigen-specific CD8+ T cells (human, UniProt Q6DKI7 1-326)
T2 sequence (looked up): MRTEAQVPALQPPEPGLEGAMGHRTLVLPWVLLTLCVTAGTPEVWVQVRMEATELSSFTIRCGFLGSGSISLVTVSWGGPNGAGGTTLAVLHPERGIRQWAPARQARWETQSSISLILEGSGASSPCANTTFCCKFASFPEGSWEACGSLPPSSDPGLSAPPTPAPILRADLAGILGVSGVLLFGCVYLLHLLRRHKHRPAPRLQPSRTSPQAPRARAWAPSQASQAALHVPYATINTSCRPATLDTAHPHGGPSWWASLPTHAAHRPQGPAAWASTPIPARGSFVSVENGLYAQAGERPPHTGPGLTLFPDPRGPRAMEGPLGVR

T3: monkey antigen protein (monkey CD112R, Uniprot ID: A0A2K5WVV8) (monkey, UniProt A0A2K5WVV8 41-171)
T3 sequence: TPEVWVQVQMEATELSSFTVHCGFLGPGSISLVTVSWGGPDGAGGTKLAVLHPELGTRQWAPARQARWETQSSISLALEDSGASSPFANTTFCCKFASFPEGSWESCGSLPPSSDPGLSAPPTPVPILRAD

T4: human CD112R on GS-J2C/CD112R effector cells (human, UniProt Q6DKI7 1-326)
T4 sequence (looked up): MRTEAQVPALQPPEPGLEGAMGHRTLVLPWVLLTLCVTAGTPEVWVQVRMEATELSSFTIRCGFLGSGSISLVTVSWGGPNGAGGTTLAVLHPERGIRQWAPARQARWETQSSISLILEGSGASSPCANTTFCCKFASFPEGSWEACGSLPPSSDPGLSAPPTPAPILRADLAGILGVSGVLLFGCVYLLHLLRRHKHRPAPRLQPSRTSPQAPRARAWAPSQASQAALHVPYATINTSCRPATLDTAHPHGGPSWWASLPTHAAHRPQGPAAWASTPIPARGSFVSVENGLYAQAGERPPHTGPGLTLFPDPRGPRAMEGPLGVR


Legend:
[1] = molecular target: T1, human CD112R antigen protein …; assay: ELISA, huCD112R-His coated on plate
[2] = molecular target: T1, human CD112R antigen protein …; assay: SPR (Biacore X100), antibody captured on Protein A chip, huCD112R-His as analyte, 1:1 Langmuir
[3] = molecular target: T2, human CD112R on antigen-specific CD8+ T …; assay: cell-based or functional assay
[4] = molecular target: T3, monkey antigen protein (monkey CD112R, …); assay: ELISA, monkey antigen protein (as Example 6.1)
[5] = molecular target: T4, human CD112R on GS-J2C/CD112R effector …; assay: cell-based or functional assay

Binder | EC50 [1] | Kd [2] | IFN-γ(pg/ml) at 0.5µg/ml antibody [3] | IFN-γ(pg/ml) at 5µg/ml antibody [3] | IFN-γ(pg/ml) at 50µg/ml antibody [3] | EC50 [4] | EC50 (Blocking effects of the antibodies, reporter gene method) [5]
C41 (antibody, human IgG1, kappa, V domains shown) VH: EVQLQQSGPELVKPGASVKISCKASGNTFTDYYINWVKQSHGKSLEWIGDIEPNNGGTNYNQKFKGKATLTVDKSSSTAYMELRSLTSEDSAIYYCATLYFDYWGQGTTLTVSS VL: DIVMTQSPSSLSVSAGEKVTMSCKSSQSLLNSGNQKNYLAWYQQKPGQPPKLLIYGASTRESGVPDRFTGSGSGTDFTLTISSVQAEDLAVYYCQNDHSYPFTFGSGTKLEIKR | 0.033 nM | 0.022 nM | 573 pg/mL | 751 pg/mL | 659 pg/mL | 0.052 nM | 0.024 µg/mL
C7 (antibody, human IgG1, kappa, V domains shown) VH: EVQLQQSGPELVKPGASVKISCKASGYTLTDYYMNWVKQSHGKSLEWIGDINPNNGGTNFNQKFKGKATLTIDKSSSTTYMELRSLTSEDSAVYYCASLFFDYWGQGTTLTVSS VL: DIVMTQSPSSLSVSAGEKVTMSCKSSQSLLNSGNQKNYLAWYQQKPGQPPKLLIYGASTRESGVPDRFTGSGSGTDFTLTISSVQAEDLALYYCQNAHSSPYTFGGGTKLEIKR | 0.034 nM | 0.0576 nM | 818 pg/mL | 837 pg/mL |  | 0.08 nM | 0.031 µg/mL

Further binders by falling EC50 [1], results first:

EC50 [1] | Kd [2] | IFN-γ(pg/ml) at 0.5µg/ml antibody [3] | IFN-γ(pg/ml) at 5µg/ml antibody [3] | IFN-γ(pg/ml) at 50µg/ml antibody [3] | EC50 [4] | EC50 (Blocking effects of the antibodies, reporter gene method) [5] | Binder
0.048 nM | 0.0467 nM | 611 pg/mL | 656 pg/mL | 733 pg/mL | 0.169 nM | 0.05 µg/mL | C24 (antibody, human IgG1, kappa, V domains shown) VH: QVQLKQSGPGLVQPSQNLSITCTVSGFSLTGYGINWVRQSPGKGLEWLGVIWSGGNTEYNAAFRSRLSISKDTSKSQVFLKMNSLQADDTAIYSCARDSTGLYAMDYWGPGTSVTVSS VL: DLQMTQTTSSLSASLGDRVTISCRTSQDISNFLNWYQQKPDGPLKLLIYYTSRLHSGVPSRFSGSGSGTDYSLTISNLEQEDIATYFCQQGYMLPPTFGGGTKLEIKR
0.046 nM | 0.181 nM | 535 pg/mL | 633 pg/mL | 755 pg/mL | 0.118 nM | 0.04 µg/mL | C3 (antibody, human IgG1, kappa, V domains shown) VH: QVQLQQSGPELVKPGASVKISCRSSGYTFTDYYINWVKQRPGQGLEWIGWIFPGSDYTYYNEKFKGKATLTVDKSSTTAYMLLSSLTSEDSAVYFCARDGGLRGPFDYWGQGTTLTVSS VL: DIQMTQSPSSLSASLGGKVTITCKASQDINKYIAWYQQKPGKGPRLLIHYTSTLQPGIPSRFSGSGSGRNSSFSISNLEPEDIATYYCLQYDNLHTFGGGTKLEIKR
